Laboratory results as given in publication PMC9290431.
“And” between values parts separate entries of the source, which are not always exact repeats. Equal entries are not always repeated. Where two headings read alike, the source gives them in different places.

What was measured:
TDP-43 NTD-NLS (human) [1] = test: AUC
TDP-43 NTD-NLS (human) [2] = test: AUC; remark: listed apart in the source

In the case of TDP-43 NTD-NLS (domain or fragment), the stoichiometry N (TDP-43 NTD-NLS (human) [1]) is reported as 2 and 4 and the stoichiometry N (TDP-43 NTD-NLS (human) [2]) is reported as 8.
